According to the supplement of paper PMC9170038:

test system: MS2 coat protein; test: apparent KD of MS2 coat protein; higher = weaker reporter binding; conditions: Eterna round: R107; input ligand: none
Experimental: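 RNA-MaP round R107: designed RNA switches with theophylline, tryptophan, arginine or FMN aptamers are transcribed on-chip within common flanks. They are titrated with SNAP-549-labelled MS2 coat protein in RNA-MaP buffer (100 mM Tris pH 7.5, 80 mM KCl, 4 mM MgCl2), without ligand or with the indicated ligand. Median apparent KD per design.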

Row | Sequence | apparent KD of MS2 coat protein [nM]
1 | UAGACGGCCGGAAGGAGCGGUACAUGAGGAUCACCCAUGUAUCUCUGGGCAUCCGUAGAGUGCCAGGUAGGUCGCCGGUUGCGGG [XArg-B22] | 11
2 | UGUAUGGACUGAAGGAGCGCCUCAAAAUAACAUGAGGAUCACCCAUGUAGGCGAAAGCCUGGGCAGGUAGGUCGCAGUCCAUACU [ArgBX 2 #StaticStem #MS2Late] | 12.9
3 | CCCAGUUAUAACAAAGGAAUAAUACUCGAAGGAGCGUCAUAGUAGGCAGGUAGGUCGCGAGACAUGAGGAUCACCCAUGUAGAGA [qvvmullin] | 46
4 | AAGACGCCGGGAAGGAGCGCAUCCAAACCACACAUGAGGAUCACCCAUGUAUAAAUAUGCAUGCAGGUAGGUCGCCCGAUGUCCC [Orbemative] | 31.6
5 | CCGACGAUGACUAUGGGUCAGGAGUGCGUACGAGGACCGGUACGGCCGCCACUCGAGGAGUGGGACAUGAGGAUCACCCAUGUGG [#19 Exclusion Tryptophan A] | 50.2
6 | ACGUAAUGCAGAAGGAGCGUCAUUCUCUUACAUGAGGAUCACCCAUGUUACAUGGUUUUAUGACAGGUAGGUCGCUGAAGUACGA [JR_SSArginiB_Sub004] | 105
7 | GUAUACAUGAGGAUCACCCAUGUACCAGAAGGAGCGCUGGAAACAGCAGGUAGGUCGCUGGUAGGUCCUCUAUCUAGACGUUCGG [EAA NP+V+V2 #4] | 168
8 | CGUUGGUGUGGAGACAUAUUGAUGACUGAAGGAGCGGGAAUAAACCCAGGUAGGUCGCAGAGAUCCACAUGAGGAUCACCCAUGU [!0.R] | 73.1
9 | GCGUCGGUCGGAAGGAGCGACAUGAGGAUCACCCAUGUCUCCCGUUAUGGGAGUUCCUUAGGUCAGGUAGGUCGCCGACGGACGC [#1 Exclusion - Arginine B Attempt #19 (Inspired by Omei)] | 170
10 | AAUUUAAACGGAAGGAGCGUCACUUAAUAUCAACAUGAGGAUCACCCAUGUAAGGGUUGUAGACAGGUAGGUCGCCGUCAUUUGA [JR_AAArginiB_Sub023] | 39.2
11 | ACAUGAGGAUCACCCAUGUUAUUUACCGAAGGAGCGGGUAUAUACCCAGGUAGGUCGCGGACAACAUGAGGAUCACCCACAUGAG [AstrosSSArgA#21] | 28.5
12 | GUACGAGUUGAAUGUGAGACUGGCGUGGAAGGAGCGCACGGAGGUGCAGGUAGGUCGCCACAUGAGGAUCACCCAUGUCGGCUAG [XARG-A 23] | 23.2
13 | ACAUGAGGAUCACCCAUGUAGCGUAGGGAAGGAGCGGAAUAGAGUCCAGGUAGGUCGCCCAUAUGAUGAUCUCACUUAUUAUCGA [#13 Same State - Arginine A] | 21.1
14 | AAUUUCGUAGGUAAAAGUUUAGAAACUGAAGGAGCGUGGUAUUACACAGGUAGGUCGCAGAUUUUACAUGAGGAUCACCCAUGUU [JR_SSArginiA_Sub008] | 22.1
15 | CGCAACCCACAUGAGGAUCACCCAUGUGAAGGAGCGCCGAAUAAGGCAGGUAGGUCGCGCAUGAAUAAAUCAUGUAGGAAGCGAA [XArg-A 6 V1&2] | 32.2
16 | UGGUACAUGAGGAUCACCCAUGUUCCAGAUACCAGUGUCCCGGUGCACCCUUGGCAGCUGGUGGUACAUGAGGAUCACCCAUGUG [Exclusion Theophylline A GF13] | 42.2
17 | AGUAGUUGACAAAAGUCAGCUACAAUUGAAGGAGCGGGUGGGUGCCCAGGUAGGUCGCAAUAACAUGAGGAUCACCCAUGUAUAA [ArgAS 2 #BothOrNeither #OpenEnded] | 21
18 | GUAUUAAGAAAACUUGAUACAGUGGGUGAACGAGGACCGGUACGGCCGCCACUCGGACAUGAGGAUCACCCAUGUCCAUGUGAAA [AstrosExyTryA#11] | 19.1
19 | UGUAUGUGAUCUGAUACCAGAGUGAAUAAACCUGAGGAUCACCCUGGUACGCGAAAGCGACUCCCUUGGCAGCAGAUCGCAUACU | 163
20 | AUGCGGUGCGGAAGGAGCGAGUUUGCCUAUUACAUGAGGAUCACCCAUGUGGGUAAUGGGACUCAGGUAGGUCGCCGUUGUCGCA [Same State Arginine B GF 28] | 57.5
21 | ACCUGCGUUUGAUUCUAUCUGACGCAGGUUCGAGGACCGGUACGGCCGCCACUCGGACAUGAGGAUCACCCAUGUUUGACAUGGG [#03 Exclusion Tryptophan A] | 121
22 | UGACGAUACCUGGAUACCAGCGACAUGAGGAUCACCCAUGUAUGAGGAUCAGCCAUGAUAUGCCCUUGGCAGCCACGAAAGUCUU [VUVMULLIN] | 15.8
23 | AGCCGUACGUACGGAAACGUACGUACGGCACGAGGACCGGUACGGCCGCCACUCGCCCACAUGAGGAUCACCCAUGUAGUGGGUG [The One Line] | 43.7

same assay, conditions: Eterna round: R107; input ligand: theophylline 20 uM

Row | Sequence | apparent KD of MS2 coat protein [nM]
24 | AAACCAAGGGAUGGGUGCCUUGGUAGUGAUACCAGCCUGGAAACAGGCCCUUGGCAGCACAUGAGGAUCACCCAUGUGAAAUAAU [TheoAX 18#OpenEnded] | 89.6
25 | GGAUAGGACAGAAGGAGCGACAUGGCGACGAAAGUCGAAACUUCACAUGAGGAUCACCCAUGUCAGGUAGGUCGCUGUCCUAUCG [ArgXB 7 #MS2Gate #StaticStem] | 63.8
26 | CUUCAACAUGAGGAUCACCCAUGUAGUGAUACCAGUCACUCAUACGACCCUUGGCAGCACAUUUUCUGUCGGCAUGUAGACGAUC [theeternabot_sameState_MS2_Theo_A_33] | 172
27 | UAGACGGCCGGAAGGAGCGGUACAUGAGGAUCACCCAUGUAUCUCUGGGCAUCCGUAGAGUGCCAGGUAGGUCGCCGGUUGCGGG [XArg-B22] | 13.8
28 | UGUAUGGACUGAAGGAGCGCCUCAAAAUAACAUGAGGAUCACCCAUGUAGGCGAAAGCCUGGGCAGGUAGGUCGCAGUCCAUACU [ArgBX 2 #StaticStem #MS2Late] | 21.4
29 | CCCAGUUAUAACAAAGGAAUAAUACUCGAAGGAGCGUCAUAGUAGGCAGGUAGGUCGCGAGACAUGAGGAUCACCCAUGUAGAGA [qvvmullin] | 49.5
30 | AAGACGCCGGGAAGGAGCGCAUCCAAACCACACAUGAGGAUCACCCAUGUAUAAAUAUGCAUGCAGGUAGGUCGCCCGAUGUCCC [Orbemative] | 48.8
31 | CCGACGAUGACUAUGGGUCAGGAGUGCGUACGAGGACCGGUACGGCCGCCACUCGAGGAGUGGGACAUGAGGAUCACCCAUGUGG [#19 Exclusion Tryptophan A] | 49.8
32 | ACGUAAUGCAGAAGGAGCGUCAUUCUCUUACAUGAGGAUCACCCAUGUUACAUGGUUUUAUGACAGGUAGGUCGCUGAAGUACGA [JR_SSArginiB_Sub004] | 122
33 | UACCCAUGAGUUGGAAAAGCUCAUGGGUAUCGAGGACCGGUACGGCCGCCACUCGGCUGUACAUGAGGAUCACCCAUGUCAGGGU [#1 Same State - Tryptophan A Attempt #24 (HarryS)] | 367
34 | CCAUGCAGGUCGGCCGCCACUACACACAUGAGGAUCACCCAUGUAGUUACUGGGUGAAGUGGCAGUAGGACCGGGACCUGCACAU [Brourdmod19] | 326
35 | GUAUACAUGAGGAUCACCCAUGUACCAGAAGGAGCGCUGGAAACAGCAGGUAGGUCGCUGGUAGGUCCUCUAUCUAGACGUUCGG [EAA NP+V+V2 #4] | 191
36 | CGUUGGUGUGGAGACAUAUUGAUGACUGAAGGAGCGGGAAUAAACCCAGGUAGGUCGCAGAGAUCCACAUGAGGAUCACCCAUGU [!0.R] | 74.9
37 | UGAUCCUGCAGGGAUACCAGCGCCGCUUGAUAACUGUGCACAUGAGGAUCACCCAUGUAGCGCCCUUGGCAGCCCAGCUAGAGGG [Same State Theophylline B GF23] | 33.7
38 | AAUAACAUGAGGAUCACCCAUGUAAAAGAUACCAGAGUGAUGAUCCUCCCUUGGCAGCUUAAUAACGCUAUUGGAAACAAUAGCG [Mat - Same State Theophlline A - Mod of Eli - D7] | 158
39 | GCGUCGGUCGGAAGGAGCGACAUGAGGAUCACCCAUGUCUCCCGUUAUGGGAGUUCCUUAGGUCAGGUAGGUCGCCGACGGACGC [#1 Exclusion - Arginine B Attempt #19 (Inspired by Omei)] | 190
40 | AAUUUAAACGGAAGGAGCGUCACUUAAUAUCAACAUGAGGAUCACCCAUGUAAGGGUUGUAGACAGGUAGGUCGCCGUCAUUUGA [JR_AAArginiB_Sub023] | 50.6
41 | AACAACUAGUCGGCCGCCACUCAUAAUACAUGAGGAUCACCCAUGUAUACUUGGUUUUUAUAUUUGAGGACCGGGACAGUUGCAU [JR_Nu_ExcTryptoB_Sub026] | 14.7
42 | ACAUGAGGAUCACCCAUGUUAUUUACCGAAGGAGCGGGUAUAUACCCAGGUAGGUCGCGGACAACAUGAGGAUCACCCACAUGAG [AstrosSSArgA#21] | 53.4
